Measurements: patent US20260274981A1 (VIB VZW, published 2026)

T1: cynomolgus TfR overexpressed on CHO cells (cynomolgus monkey, UniProt Q5RDH6 1-760 (Pongo abelii entry))
T1 construct: construct is TfR followed by an HA tag and IRES-GFP; also called cynomolgus monkey TfR1; NHP TfR
T1 chain: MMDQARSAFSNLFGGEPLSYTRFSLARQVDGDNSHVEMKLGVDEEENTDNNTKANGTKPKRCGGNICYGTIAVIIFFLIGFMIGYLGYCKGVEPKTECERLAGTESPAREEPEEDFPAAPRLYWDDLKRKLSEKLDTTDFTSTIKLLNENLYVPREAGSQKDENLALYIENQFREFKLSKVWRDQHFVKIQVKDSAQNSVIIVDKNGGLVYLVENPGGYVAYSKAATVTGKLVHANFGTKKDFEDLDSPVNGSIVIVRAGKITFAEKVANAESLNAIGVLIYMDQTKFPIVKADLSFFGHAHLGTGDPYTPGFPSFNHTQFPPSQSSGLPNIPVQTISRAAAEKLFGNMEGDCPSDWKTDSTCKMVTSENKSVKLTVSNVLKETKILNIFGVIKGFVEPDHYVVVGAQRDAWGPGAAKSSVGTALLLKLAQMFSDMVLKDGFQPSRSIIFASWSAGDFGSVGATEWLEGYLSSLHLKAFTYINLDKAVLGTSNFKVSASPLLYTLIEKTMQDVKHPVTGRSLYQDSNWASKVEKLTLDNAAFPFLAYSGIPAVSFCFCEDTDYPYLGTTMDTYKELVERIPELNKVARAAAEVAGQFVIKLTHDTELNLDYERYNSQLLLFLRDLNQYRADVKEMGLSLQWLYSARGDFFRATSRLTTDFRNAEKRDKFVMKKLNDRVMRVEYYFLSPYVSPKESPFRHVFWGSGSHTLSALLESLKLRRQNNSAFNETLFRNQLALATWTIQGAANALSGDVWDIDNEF


Target: T1, cynomolgus TfR overexpressed on CHO …
Test: flow cytometry on CHO cells overexpressing cynomolgus TfR (CHO-cynoTfR), VHH detected with anti-FLAG-iFluor647; median Flag-i647 intensity in total GFP cells
Method: Output libraries were screened with flow cytometry to find binders to human TfR overexpressing cells (FIG. 1A). […] Binding kinetics to recombinant human and cynomolgus TfR were further characterized with Surface Plasmon Resonance (SPR).
Periplasmic extracts diluted 1:10 in PBS 2% FBS, or a dilution range of different VHH or bispecific antibody concentrations prepared in PBS 2% FBS, were incubated with 0.1 million CHO cells overexpressing either the human, cynomolgus or mouse TfR for 30 min at 4° C. As control for background binding, periplasmic extracts, VHHs or bispecific antibodies were also incubated with 0.1 million CHO cells overexpressing GFP. Binding of VHHs was next resolved by a second step 30 min incubation at 4° C. with an anti-FLAG-iFluor647 antibody (A01811, Genscript) diluted 1:500 for screening and 1:250 for validation assays, or with anti-human IgG Fc-Alexa Fluor647 antibody (410714, BioLegend) diluted 1:200. […] Cells were fixed with 4% paraformaldehyde before being analyzed. Flp-In™-CHO™ cells used as unstained control and single stain controls were used to determine the cut-off point between background fluorescence and positive populations. […] The data was acquired with an Attune Nxt flow cytometer (Invitrogen) and analyzed by FCS Express 7 Research Edition.

Row | Binder | EC50 (read off the curve) [nM]
1 | BBB00533 (VHH, Lead VHH expressed in E. coli TG1 and purified by IMAC; detected with anti-FLAG antibody in flow cytometry; also called BBB00533 VHH; not shown: C-terminal 3xFlag/6xHis tag from expression vector pBDS119) VHH: QVQLQESGGGSVQPGGSLRLSCTASGRTFNYAMGWFRQAPGKNREFVATIDWKDGSSYYLDSVRGRFTIERDDAKNTVYLQMNSLKPEDAAVYTCAVGDGDYCSTYTCAAEVEYDYWGQGTQVTVSS | ~40
2 | BBB00515 (VHH, Lead VHH expressed in E. coli TG1 and purified by IMAC; detected with anti-FLAG antibody in flow cytometry; also called BBB00515 VHH; not shown: C-terminal 3xFlag/6xHis tag from expression vector pBDS119) VHH: QVQLQESGGGLVQAGGSLRLSCAASGSIFSINAMGWYRQAPGKQRELVAVITSGGSTIYADSVKGRFTISRDNAENTVYLQMNSLKPEDTAVYYCNAHVGLKVPTIQELSLGFGSWGQGTQVTVSS | ~8
